# Target: Taq DNA polymerase (Thermus aquaticus) (UniProt P19821)
# Experiment: cell-based or functional assay
# Sequence of UniProt P19821 (P19821 whole entry): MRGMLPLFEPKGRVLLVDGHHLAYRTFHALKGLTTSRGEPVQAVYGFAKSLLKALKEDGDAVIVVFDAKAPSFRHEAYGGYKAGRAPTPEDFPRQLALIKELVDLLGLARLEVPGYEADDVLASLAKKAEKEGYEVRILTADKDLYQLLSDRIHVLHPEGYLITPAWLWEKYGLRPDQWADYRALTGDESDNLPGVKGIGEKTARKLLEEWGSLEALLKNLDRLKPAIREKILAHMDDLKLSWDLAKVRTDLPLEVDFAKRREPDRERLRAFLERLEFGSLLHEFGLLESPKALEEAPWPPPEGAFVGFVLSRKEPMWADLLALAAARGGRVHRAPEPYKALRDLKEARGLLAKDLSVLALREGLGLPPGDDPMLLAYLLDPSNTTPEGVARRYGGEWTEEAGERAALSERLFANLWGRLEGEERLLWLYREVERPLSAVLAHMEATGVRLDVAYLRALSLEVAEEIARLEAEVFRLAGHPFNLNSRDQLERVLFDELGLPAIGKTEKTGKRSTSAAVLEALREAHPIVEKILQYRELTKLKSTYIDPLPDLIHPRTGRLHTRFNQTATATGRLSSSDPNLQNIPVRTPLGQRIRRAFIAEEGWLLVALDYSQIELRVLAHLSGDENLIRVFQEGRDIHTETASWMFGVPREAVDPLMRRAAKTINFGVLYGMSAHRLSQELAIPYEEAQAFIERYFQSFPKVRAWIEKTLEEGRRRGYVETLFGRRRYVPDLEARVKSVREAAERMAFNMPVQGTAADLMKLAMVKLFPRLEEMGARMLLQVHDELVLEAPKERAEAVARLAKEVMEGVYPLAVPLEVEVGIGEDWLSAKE
substance,measurement,value
JumpStart Antibody (Sigma Aldrich),reactivation time of Taq DNA polymerase at 95 C in real-time PCR,< 0.5 min

# Reference: patent publication US20180298422A1
